According to US20200239586A1 (LA TROBE UNIVERSITY, published 2020):
Values belong to the binder of their own block, whether it stands above or below them.

Experiments:
[1] = target: phage expressed hFn14 mutant S54A (human, UniProt Q9NP84 28-77); assay: phage ELISA, mAb coated (Method 2)
Description: (§1) The wells of Maxisorp immunoplates (Nunc) were coated overnight at 4° C. with the target monoclonal antibodies or recombinant Tweak-Fc at a concentration of 1.5 μg/ml in PBS. mAb 5G8 was used as a negative control for ELISA plates coated with tested antibodies. […] 10-fold serial dilutions of phage were made using PBS solution and phage dilutions were added to the coated, blocked ELISA plates for 1 hour, shaking at room temperature. Phage was subsequently removed from the wells and the ELISA plates were washed three times with PBS/0.05% Tween 20.
Method A: HRP-conjugated anti-M13-phage antibody (GE Healthcare) at a 1/5000 dilution in PBS was then added to the wells of the ELISA plates for 1 hour, shaking at room temperature. The antibody solution was then removed from the wells and the ELISA plates were washed four times with PBS/0.05% Tween 20. Method B: Biotin-conjugated anti-M13-phage antibody (GE Healthcare) diluted in PBS was then added to the wells of the ELISA plates for 1 hour shaking at room temperature. The antibody solution was then removed from the wells and the ELISA plates were washed three times with PBS/0.05% Tween 20. HRP-conjugated Streptavidin diluted in PBS was then added to the wells of the ELISA plates for 1 hour, shaking at room temperature. […] Optical density at 450 nm was quantified using a Spectramax absorbance spectrophotometer.

[2] = target: T1, synthetic peptide hFn14 sub-domain 1p (human, biotin on the added C-terminal lysine); assay: ELISA on biotinylated synthetic peptide
T1 construct: synthesised by GLBiochem
T1 peptide: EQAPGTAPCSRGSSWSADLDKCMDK
Description: Peptides representing sub-domains 1p, 2 and 3 of hFn14 (FIG. 20, Panels B and C and FIG. 14, Panel A) and for disulfide pair mutants (Cys3&6ΔS and Cys4&5ΔS; FIG. 20 Panels D and E) were synthesized by GLBiochem Ltd. (Shanghai, China) and the cysteine residues for disulfide bonds were chosen as described in the solution structure by He et al., (2009). An additional lysine residue was added to the C-terminus in order to attach a biotin moiety and to enable the peptides to bind to neutravidin coated plates (Pre-blocked; Pierce). For these experiments, a control peptide with a biotin at the C-terminus was used as a negative control and isotype control antibodies were also used.
The ELISA was performed essentially according to the manufacturer's recommended protocol (Pierce). Briefly, peptide was coated onto wells (in duplicate) at 1-10 μg/ml for 2 hours at room temperature. Wells were washed in PBS/0.05% Tween 20/0.1% BSA 3 times and dilutions of each antibody were added in wash buffer for 1 hour with gentle agitation. After another three washes anti-mouse HRP-conjugated to horse radish peroxidase (HRP; Chemicon) was added at 1/1000 dilution for 1 hour shaking. Finally, after 4 further washes the plate was developed using TMB (3,3′,5,5′-tetramethylbenzidine) substrate (Pierce), and the reaction was stopped using 2M H2SO4 solution. Optical density at 450 nm was quantified using a Spectromax absorbance spectrophotometer.

[3] = target: T2, His tagged hFn14 extracellular region mutant R56P (human, UniProt Q9NP84 28-77); assay: ELISA with purified His-tagged hFn14 R56P; x axis 'Log (c)' without unit, µg/ml by the legend
T2 construct: also called R56P mutant; not shown: (His)6 tag

[4] = target: T3, His tagged hFn14 extracellular region mutant R56K (human, UniProt Q9NP84 28-77); assay: ELISA with purified His-tagged hFn14 R56K; x axis 'Log (c)' without unit, µg/ml by the legend
T3 construct: not shown: (His)6 tag

[5] = target: phage expressed hFn14 mutant L65A (human, UniProt Q9NP84 28-77); assay: phage ELISA (Method 2): antibody coated on the plate, 10-fold dilutions of phage displaying hFn14 L65A; biotin anti-M13 antibody, streptavidin-HRP, TMB, OD 450 nm; x axis = dilution of phage
From the text: For mutants P59A and F63A, binding was detected using HRP-conjugated anti-M13-phage polyclonal IgG and TMB substrate. For all other mutants binding was detected using Biotin-conjugated anti-M13-phage monoclonal antibody followed by HRP-conjugated Streptavidin and TMB substrate. Optical density at 450 nm was quantified using a Spectramax spectrophotometer. Error bars for each dilution represent the standard deviation of duplicate assays. FIG. 27A wild type Fn14, FIG. 27B W42A, FIG. 27C S54A, FIG. 27D A57G, FIG. 27E P59A, FIG. 27F S61A, FIG. 27G F63A, FIG. 27H L65A. In all cases error bars represent the standard deviation. X axis=dilution of phage. Methods according to Epitope mapping using phage expressed Fn14—Method 2
as §1, with “20. […]” for “20.”

[6] = target: phage expressed hFn14 mutant H60K (human, UniProt Q9NP84 28-77); assay: phage ELISA (Method 2): antibody coated on the plate, 10-fold dilutions of phage displaying hFn14 H60K; biotin anti-M13 antibody, streptavidin-HRP, TMB, OD 450 nm; x axis = dilution of phage
Description: ELISAs showing the reactivity of mutant H60A and H60K hFn14 phage constructs with the anti-Fn14 monoclonal antibodies CRCBT-06-001, CRCBT-06-002, CRCBT-06-004 compared to ITEM-1 and ITEM-4. ITEM-2 was assessed on H60K. Binding was detected using Biotin-conjugated anti-M13-phage monoclonal antibody followed by HRP-conjugated Streptavidin and TMB substrate. Optical density at 450 nm was quantified using a Spectramax spectrophotometer. Error bars for each dilution represent the standard deviation of duplicate assays. X axis=dilution of phage. Methods according to Epitope mapping using phage expressed Fn14—Method 2.
as §1
Method A: HRP-conjugated anti-M13-phage antibody (GE Healthcare) at a 1/5000 dilution in PBS was then added to the wells of the ELISA plates for 1 hour, shaking at room temperature. […]

phage expressed hFn14 mutant S54A, sequence (Q9NP84 28-77 S54A): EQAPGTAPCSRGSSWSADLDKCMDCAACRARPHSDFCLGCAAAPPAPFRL
phage expressed hFn14 mutant H60K, sequence (Q9NP84 28-77 H60K): as the sequence (Q9NP84 28-77 S54A) above, with A27S, H33K counted along it

- binding result [1]: binds
- binding result [2]: no binding
- binding result [3]: binds
- binding result [4]: binds
- binding result [5]: binds
- binding result [6]: binds
B1: CRCBT-06-001 (antibody, IgG2b, V domains shown)
VH: QVQLQQSGGGLVQPGGSMKLSCIASGFTFSSYWMSWVRQSPEKGLEWVAEIRSKSDNYATHYAESVKGKFTISRDDSKSRFFLQMNNLRAEDTGIYYCSSTYADYFHYWGQGTDLTVSS
VL: DIVMTQTPASLAVSLGQRATISCRASQSVSTSTYSYMHWYQQKPGQPPKLLIKYASSLESGVPARFSGSGSGTDFTLNIHPVEEDDTATYYCQHSWEIPYTFGGGTKLEIKR

- binding result [1]: binds
- binding result [2]: no binding
- binding result [3]: binds
- binding result [4]: binds
- binding result [5]: binds
- binding result [6]: binds
B2: CRCBT-06-002 (antibody, IgG1, V domains shown)
VH: EVKLQQSGGGLVQPGGSMKLSCVASGFTFSYYWMNWVRQSPEQGLEWIAEIRLQSNDYPTHYAESVKGRFTISRDDSKNSVYLQMNNLRPEDTGIYYCACRYADYFDHWGQGTTLTVSS
VL: DTVLTQSPASLVVSLGQRATISCRASQSVSTSDYSYIHWYQQKPGQPPKFLIKYASNRDSGVPARFSGSGSGTDFTLNIHPVEEDDTAIYYCQHSWEIPPTFGAGTKLELQR
